Laboratory results published in patent publication US20060078562A1, “RAGE fusion proteins and methods of use” (priority 2004, published 2006).

B1: TTP-4000: four domain RAGE-IgG Fc fusion protein, SEQ ID NO: 32: human RAGE amino acids 1-251 linked to CH2 and CH3 domains of human IgG (protein, listed as Homo sapiens)
chain: MAAGTAVGAWALVLSLWGAVVGAQNITARIGEPLVLKCKGAPKKPPQRLEWKLNTGRTEAWKVLSPQGGGPWDSVARVLPNGSLFLPAVGIQDEGIFRCQAMNRNGKETKSNYRVRVYQIPGKPEIVDSASELTAGVPNKVGTCVSEGSYPAGTLSWHLDGKPLVPNEKGVSVKEQTRRHPETGLFTLQSELMVTPARGGDPRPTFSCSFSPGLPRHRALRTAPIQPRVWEPVPLEEVQLVVEPEGGAVAPPSVFLFPPKPKDTLMISRTPEVTCVVVDVSHEDPEVKFNWYVDGVEVHNAKTKPREEQYNSTYRVVSVLTVLHQDWLNGKEYKCKVSNKALPAPIEKTISKAKGQPREPQVYTLPPSRDELTKNQVSLTCLVKGFYPSDIAVEWESNGQPENNYKTTPPVLDSDGSFFLYSKLTVDKSRWQQGNVFSCSVMHEALHNHYTQKSLSLSPGK

Legend:
[1] = target: Fc receptor on THP-1 cells; experiment: cell-based or functional assay
[2] = test system: amyloid-beta (A-beta); experiment: Competition of a RAGE ligand with immobilized amyloid-beta for binding to the fusion protein; settings: TTP-4000 initial solution diluted 1:10 or 1:30; RAGE ligand FAC 10 μM
Protocol: The fusion protein of the present invention may also be used to identify compounds having the ability to bind to RAGE.
Known RAGE ligands were coated onto the surface of Maxisorb plates at a concentration of 5 micrograms per well. Plates were incubated at 4° C. overnight. Following ligand incubation, plates were aspirated and a blocking buffer of 1% BSA in 50 mM imidizole buffer (pH 7.2) was added to the plates for 1 hour at room temperature. The plates were then aspirated and/or washed with wash buffer (20 mM Imidizole, 150 mM NaCl, 0.05% Tween-20, 5 mM CaCl2 and 5 mM MgCl2, pH 7.2). […] The fusion protein was added at increasing dilutions of the initial sample. The RAGE fusion protein was allowed to incubate with the immobilized ligand at 37° C. for one hour after which the plate was washed and assayed for binding of the fusion protein. Binding was detected by the addition of an immunodetection complex containing a monoclonal mouse anti-human IgG1 diluted 1:11,000 to a final assay concentration (FAC) of 21 ng/100 μL, a biotinylated goat anti-mouse IgG diluted 1:500, to a FAC of […], and an avidin-linked alkaline phosphatase. […] Binding of the complex to the immobilized fusion protein was quantified by measuring conversion of PNPP to para-nitrophenol (PNP) which was measured spectrophotometrically at 405 nm. […]

[3] = test system: S100b/RAGE-induced production of TNF-α in THP-1 cells; experiment: Inhibition of S100b/RAGE-induced production of TNF-α in THP-1 cells; type: cell-based; settings: 10 μg protein
Protocol: THP-1 myeloid cells may be cultured in RPMI-1640 media supplemented with 10% FBS and induced to secrete TNF-α via stimulation of RAGE with S100b. When such stimulation occurs in the presence of a RAGE fusion protein, induction of TNF-α by S100b binding to RAGE may be inhibited.
Previous work has shown that the myeloid THP-1 cells may secrete TNF-α in response to RAGE ligands. In this assay, THP-1 cells were cultured in RPMI-1640 media supplemented with 10% FBS using a protocol provided by ATCC. […] The amount of TNF-α secreted by the THP-1 cells was measured 24 hours after the addition of the proteins to the cell culture using a commercially available ELISA kit for TNF-α (R&D Systems, Minneapolis, Minn.).

[4] = test system: Zucker diabetic rats, restenosis following vascular injury; experiment: Diabetic rat model of restenosis (balloon injury of left common carotid artery); type: in vivo; settings: 4 days after injury; dose-responsive; FIG. 13B
Protocol: In these experiments, balloon injury of left common carotid artery was performed in Zucker diabetic and nondiabetic rats using standard procedure. […] A maintenance dose was delivered every other day until day 7 after injury (i.e., at day 1, 3, 5 and 7 after injury). The maintenance dose was high=1 mg/animal for one group, or low=0.3 mg/animal for the second group. To measure vascular smooth muscle cell (VSMC) proliferation, animals were sacrificed at 4 days and 21 days after injury. For the measurement of cell proliferation, 4 day animals received intraperitoneal injection of bromodeoxyuridine (BrDdU) 50 mg/kg at 18, 12, and 2 hours before euthanasia. After sacrifice, the entire left and right carotid arteries were harvested. Specimens were stored in Histochoice for at least 24 hours before embedding. Assessment of VSMC proliferation was performed using mouse anti-BrdU monoclonal antibody. A fluorescence labeled goat anti-mouse secondary antibody was applied. The number of BrdU-positive nuclei per section were counted by two observers blinded to the treatment regimens. The remaining rats were sacrificed at 21 days for morphometric analysis. […] All data were expressed as mean±SD. […]

[5] = test system: male C57BL/6 mice, cerebral ischemia; experiment: Mouse model of stroke (cerebral ischemia and reperfusion, infarct); type: in vivo; settings: treated just prior to reperfusion
Protocol: For example, the RAGE fusion proteins of the present invention may also be used to treat stroke. […] In this model, the […] of a mouse is ligated and then reperfused to form an infart. To assess the efficacy of RAGE fusion proteins to treat or prevent stroke, mice were treated with sRAGE or TTP-4000 or control immunoglobulin just prior to reperfusion.
TTP-4000 was also compared to sRAGE in a disease relevant animal model of stroke. In this model, the […] of a mouse was ligated for 1 hour followed by 23 hours of reperfusion at which point the mice were sacrificed and the area of the infarct in the brain was assessed. […] After the nylon suture had been in place for 1 hour, the animal was re-anesthetized, rectal temperature was recorded and the suture was removed and the incision closed.
Infarct volume was determined by anesthetizing the animals with an intraperitoneal injection of sodium pentobarbital (50 mg/kg) and then removing the brains. […] The infarct area in each section was determined with a computer-assisted image analysis system, consisting of a Power Macintosh computer equipped with a Quick Capture frame grabber card, Hitachi CCD camera mounted on a camera stand. […] The images were captured and the total area of infarct was determined over the sections. […] Summing the infarct volumes of the sections calculated the total infarct volume. […]

Row | Molecule | TNF secreted by THP-1 cells in wells precoated with 10 ug/well heat aggregated human IgG1, 24 hours [1] | binding of fusion protein to immobilized amyloid-beta blocked by the RAGE ligand [2] | blocking S100b induction of TNF-α compared with sRAGE [3] | vascular smooth muscle cell proliferation (number of BrdU proliferating cells) [4] | reduction in infarct volume compared to sRAGE [5]
1 | human IgG1 (heat aggregated) (antibody) | > 40 ng/well |  |  |  | 
2 | B1 |  | completely inhibited | at least as effective | significantly reduced | significantly greater reduction
